Measured values: paper PMC5505994 (Scientific Reports, 2017)

B1: alkyl hydroperoxide reductase subunit C (AhpC) from Mycobacterium bovis (BCG strain), wild type (enzyme)
chain: MPLLTIGDQFPAYQLTALIGGDLSKVDAKQPGDYFTTITSDEHPGKWRVVFFWPKDFTFVCPTEIAAFSKLNDEFEDRDAQILGVSIDSEFAHFQWRAQHNDLKTLPFPMLSDIKRELSQAAGVLNADGVADRVTFIVDPNNEIQFVSATAGSVGRNVDEVLRVLDALQSDELCACNWRKGDPTLDAGELLKASA

Columns and labels:
[1] = target: the molecule itself; assay: negative-stain electron microscopy with 2D classification
SEC = target: the molecule itself; assay: SEC
[2] = target: B1; assay: NMR titration; details: both partners purified

Binder	stoichiometry N [1]	stoichiometry N (SEC)	binding result [2]
B1	12	2	
Mycobacterium bovis thioredoxin TrxC (natural protein) MTDSEKSATIKVTDASFATDVLSSNKPVLVDFWATWCGPCKMVAPVLEEIATERATDLTVAKLDVDTNPETARNFQVVSIPTLILFKDGQPVKRIVGAKGKAALLRELSDVVPNLN			binds
MbAhpC with deletion of the loop residues 23 to 34 (enzyme) MPLLTIGDQFPAYQLTALIGGDFTTITSDEHPGKWRVVFFWPKDFTFVCPTEIAAFSKLNDEFEDRDAQILGVSIDSEFAHFQWRAQHNDLKTLPFPMLSDIKRELSQAAGVLNADGVADRVTFIVDPNNEIQFVSATAGSVGRNVDEVLRVLDALQSDELCACNWRKGDPTLDAGELLKASA		2	
